First the molecules themselves.
B1: EEHEE_rd4_0763 (parent)
chain: LTVHVGNVTYHFDNPEQAEEWAKRMAKKYQGQIHVKDGQFRIE

In this series the parent is B1. Description: folding stability dG (cDNA display proteolysis); higher = more stable. The conditions noted are these: PBS, room temperature.
Take E16M: the “folding stability dG” value came to 1.66 kcal/mol.

For the variant E16N, the “folding stability dG” value is 1.56 kcal/mol.

Regarding E16C, the “folding stability dG” value was 2.54 kcal/mol.

For E16W, the “folding stability dG” value was 1.67 kcal/mol.

As to H11Q, the “folding stability dG” value turned out to be 1.45 kcal/mol.

On to H11P, for which the “folding stability dG” value is 0.551 kcal/mol.

For the variant H11N, the “folding stability dG” value was 1.25 kcal/mol.

For H11K, the “folding stability dG” value came to 1.6 kcal/mol.

In the case of P15K, the “folding stability dG” value worked out at 1.78 kcal/mol.

Regarding P15C, the “folding stability dG” value was 1.86 kcal/mol.

For the variant P15I, the “folding stability dG” value was determined as 1.78 kcal/mol.

Take P15Q: the “folding stability dG” value amounted to 1.6 kcal/mol.

With P15H, the “folding stability dG” value is 1.7 kcal/mol.

Regarding P15T, the “folding stability dG” value came out at 1.58 kcal/mol.

Regarding P15W, the “folding stability dG” value came out at 1.91 kcal/mol.

In the case of A26S, the “folding stability dG” value was found to be 1.14 kcal/mol.

In the case of A26V, the “folding stability dG” value is 1.09 kcal/mol.

As to A26E, the “folding stability dG” value was found to be 0.642 kcal/mol.

As for A26H, the “folding stability dG” value is 0.862 kcal/mol.

As for A26Y, the “folding stability dG” value was 1.15 kcal/mol.

In the case of I33Q, the “folding stability dG” value stood at 0.795 kcal/mol.

With I33L, the “folding stability dG” value amounted to 1.65 kcal/mol.

Take R24E: the “folding stability dG” value was found to be 1.43 kcal/mol.

Consider R24I, for which the “folding stability dG” value came to 1.75 kcal/mol.

On to R24N, for which the “folding stability dG” value worked out at 1.09 kcal/mol.

As to R24M, the “folding stability dG” value came to 1.85 kcal/mol.

As for A18R, the “folding stability dG” value was 0.882 kcal/mol.

Take A18M: the “folding stability dG” value is 1.21 kcal/mol.

With A18T, the “folding stability dG” value worked out at 0.517 kcal/mol.

As to A18K, the “folding stability dG” value came out at 0.701 kcal/mol.

As to Q17N, the “folding stability dG” value was determined as 1.38 kcal/mol.

As to Q17M, the “folding stability dG” value turned out to be 1.61 kcal/mol.

Consider Q17Y, for which the “folding stability dG” value is 1.53 kcal/mol.

T9V: the “folding stability dG” value came out at 1.98 kcal/mol.

Turning to T9F, the “folding stability dG” value is 1.37 kcal/mol.

Consider T9N, for which the “folding stability dG” value was determined as 0.836 kcal/mol.

As to T9W, the “folding stability dG” value was 1.28 kcal/mol.

Q39M: the “folding stability dG” value amounted to 1.36 kcal/mol.

For the variant Q39V, the “folding stability dG” value came to 1.57 kcal/mol.

As to Q39I, the “folding stability dG” value is 1.52 kcal/mol.

For the variant Q39K, the “folding stability dG” value turned out to be 1.23 kcal/mol.

On to Q39G, for which the “folding stability dG” value turned out to be 1.7 kcal/mol.

Consider V35M, for which the “folding stability dG” value came to 1.61 kcal/mol.

As to V35A, the “folding stability dG” value came to 0.96 kcal/mol.

V35K: the “folding stability dG” value came to 1.17 kcal/mol.

R41I: the “folding stability dG” value worked out at 2.6 kcal/mol.

As to R41G, the “folding stability dG” value is 1.3 kcal/mol.

With R41V, the “folding stability dG” value was found to be 2.45 kcal/mol.

With T2A, the “folding stability dG” value turned out to be 1.51 kcal/mol.

Take T2N: the “folding stability dG” value was 1.14 kcal/mol.

For T2Q, the “folding stability dG” value stood at 1.53 kcal/mol.

Take T2H: the “folding stability dG” value was 1.53 kcal/mol.

As for T2G, the “folding stability dG” value turned out to be 0.823 kcal/mol.

For the variant T2F, the “folding stability dG” value turned out to be 1.58 kcal/mol.

Take V5W: the “folding stability dG” value turned out to be 1.82 kcal/mol.

V5C: the “folding stability dG” value is 2.66 kcal/mol.

With G6E, the “folding stability dG” value turned out to be 1.01 kcal/mol.

For G6M, the “folding stability dG” value came out at 1.51 kcal/mol.

Regarding G6I, the “folding stability dG” value was 1.18 kcal/mol.

For the variant G6P, the “folding stability dG” value was found to be 0.447 kcal/mol.

As to G6F, the “folding stability dG” value turned out to be 1.84 kcal/mol.

With K27G, the “folding stability dG” value was found to be 1.13 kcal/mol.

For K27T, the “folding stability dG” value is 1.58 kcal/mol.

In the case of K27Q, the “folding stability dG” value was 1.66 kcal/mol.

As for K27D, the “folding stability dG” value is 1.44 kcal/mol.

On to K23N, for which the “folding stability dG” value amounted to 1.38 kcal/mol.

In the case of K23A, the “folding stability dG” value is 1.3 kcal/mol.

As for K23M, the “folding stability dG” value turned out to be 1.61 kcal/mol.

Turning to D37F, the “folding stability dG” value worked out at 0.868 kcal/mol.

D13R: the “folding stability dG” value amounted to 1.47 kcal/mol.

As for D13S, the “folding stability dG” value worked out at 1.7 kcal/mol.

Take D13Q: the “folding stability dG” value stood at 1.57 kcal/mol.

As to D13H, the “folding stability dG” value was 1.37 kcal/mol.

With D13F, the “folding stability dG” value turned out to be 1.36 kcal/mol.

As to D13K, the “folding stability dG” value amounted to 1.67 kcal/mol.

As for I42F, the “folding stability dG” value amounted to 1.02 kcal/mol.

As to I42V, the “folding stability dG” value came out at 1.58 kcal/mol.

For the variant I42H, the “folding stability dG” value was 1.12 kcal/mol.

With H34M, the “folding stability dG” value worked out at 1.69 kcal/mol.

Turning to H34R, the “folding stability dG” value was 1.55 kcal/mol.

Turning to N7H, the “folding stability dG” value was found to be 1.69 kcal/mol.

For the variant N7F, the “folding stability dG” value was found to be 1.62 kcal/mol.

For the variant N7S, the “folding stability dG” value came out at 1.7 kcal/mol.

Regarding W21M, the “folding stability dG” value was 0.944 kcal/mol.

Regarding W21V, the “folding stability dG” value stood at 0.517 kcal/mol.

With E19G, the “folding stability dG” value is 1.21 kcal/mol.

E19V: the “folding stability dG” value was 1.69 kcal/mol.

E19K: the “folding stability dG” value was 1.62 kcal/mol.

Turning to E19P, the “folding stability dG” value was determined as 0.646 kcal/mol.

Regarding E19C, the “folding stability dG” value was found to be 2.53 kcal/mol.

Consider V3Q, for which the “folding stability dG” value amounted to 0.344 kcal/mol.

On to V3R, for which the “folding stability dG” value turned out to be 0.352 kcal/mol.

Turning to V3K, the “folding stability dG” value stood at 0.424 kcal/mol.

On to Y10C, for which the “folding stability dG” value came to 1.77 kcal/mol.

For Y10D, the “folding stability dG” value was found to be 0.031 kcal/mol.

As to Y10V, the “folding stability dG” value stood at 0.913 kcal/mol.

For the variant Y10W, the “folding stability dG” value was 1.85 kcal/mol.

In the case of M25I, the “folding stability dG” value was 1.44 kcal/mol.

M25G: the “folding stability dG” value worked out at 0 kcal/mol.

On to M25Q, for which the “folding stability dG” value worked out at 0.839 kcal/mol.

For M25R, the “folding stability dG” value amounted to 0.567 kcal/mol.

On to M25H, for which the “folding stability dG” value stood at 0.756 kcal/mol.

On to M25V, for which the “folding stability dG” value is 1.23 kcal/mol.

On to E20I, for which the “folding stability dG” value amounted to 1.58 kcal/mol.

For E20A, the “folding stability dG” value is 1.87 kcal/mol.

Regarding N14E, the “folding stability dG” value came to 1.36 kcal/mol.

As to N14M, the “folding stability dG” value is 1.31 kcal/mol.

N14F: the “folding stability dG” value came out at 1.47 kcal/mol.

On to N14Y, for which the “folding stability dG” value turned out to be 1.43 kcal/mol.

Take Q30T: the “folding stability dG” value came to 1.2 kcal/mol.

Turning to Q30D, the “folding stability dG” value was 1.52 kcal/mol.

As to Q30I, the “folding stability dG” value was found to be 1.18 kcal/mol.

Consider H4S, for which the “folding stability dG” value turned out to be 1.72 kcal/mol.

As to H4V, the “folding stability dG” value was 1.97 kcal/mol.

As for H4E, the “folding stability dG” value was 1.24 kcal/mol.

In the case of H4R, the “folding stability dG” value was 1.82 kcal/mol.

For H4T, the “folding stability dG” value is 1.85 kcal/mol.

On to A22M, for which the “folding stability dG” value was 1.36 kcal/mol.

Turning to A22G, the “folding stability dG” value worked out at 0.659 kcal/mol.

Turning to A22F, the “folding stability dG” value worked out at 1.23 kcal/mol.

As for A22Q, the “folding stability dG” value turned out to be 0.611 kcal/mol.

Take F12V: the “folding stability dG” value was found to be 0.101 kcal/mol.

As for F12M, the “folding stability dG” value stood at 0.22 kcal/mol.

Take F12H: the “folding stability dG” value turned out to be 0 kcal/mol.

With F12L, the “folding stability dG” value came out at 0.531 kcal/mol.

F12P: the “folding stability dG” value is -0.199 kcal/mol.

With F12Y, the “folding stability dG” value stood at 0.446 kcal/mol.

For the variant F12T, the “folding stability dG” value is -0.063 kcal/mol.

As for F12G, the “folding stability dG” value was -0.264 kcal/mol.

On to K28H, for which the “folding stability dG” value was 1.53 kcal/mol.

Regarding K28V, the “folding stability dG” value was determined as 1.43 kcal/mol.

On to K28S, for which the “folding stability dG” value was 0.897 kcal/mol.

Take K28R: the “folding stability dG” value came to 1.78 kcal/mol.

K28A: the “folding stability dG” value worked out at 1.23 kcal/mol.

Take K28C: the “folding stability dG” value came to 2.59 kcal/mol.

As for K28N, the “folding stability dG” value worked out at 0.823 kcal/mol.

G31T: the “folding stability dG” value was found to be 1.52 kcal/mol.

Take G31A: the “folding stability dG” value is 1.86 kcal/mol.

Regarding G31S, the “folding stability dG” value was found to be 1.47 kcal/mol.

In the case of G31N, the “folding stability dG” value was 1.02 kcal/mol.

Regarding G31V, the “folding stability dG” value was 1.78 kcal/mol.

In the case of V8Y, the “folding stability dG” value came out at 1.78 kcal/mol.

Turning to V8K, the “folding stability dG” value turned out to be 1.74 kcal/mol.

For the variant V8S, the “folding stability dG” value amounted to 1.37 kcal/mol.

Consider F40Q, for which the “folding stability dG” value came out at 0.978 kcal/mol.

Turning to F40I, the “folding stability dG” value was 2.25 kcal/mol.

Take K36Y: the “folding stability dG” value came to 1.7 kcal/mol.

For the variant K36N, the “folding stability dG” value came out at 1.49 kcal/mol.

In the case of K36T, the “folding stability dG” value is 1.73 kcal/mol.

Consider K36M, for which the “folding stability dG” value came out at 1.67 kcal/mol.

As to K36H, the “folding stability dG” value was determined as 1.75 kcal/mol.

Turning to L1V, the “folding stability dG” value turned out to be 1.86 kcal/mol.

Turning to L1D, the “folding stability dG” value was 0.974 kcal/mol.

As to G38S, the “folding stability dG” value came to 0.873 kcal/mol.

With E43P, the “folding stability dG” value turned out to be 1.15 kcal/mol.

Take E43S: the “folding stability dG” value is 1.4 kcal/mol.

Regarding E43C, the “folding stability dG” value is 3.04 kcal/mol.

In the case of E43D, the “folding stability dG” value turned out to be 1.44 kcal/mol.

Turning to Y29G, the “folding stability dG” value worked out at 0.732 kcal/mol.

In the case of Y29D, the “folding stability dG” value worked out at 0.496 kcal/mol.

On to Y29P, for which the “folding stability dG” value is 0.306 kcal/mol.

For the variant Y29L, the “folding stability dG” value was 1.68 kcal/mol.

In the case of Y29S, the “folding stability dG” value was determined as 0.788 kcal/mol.

For the variant Q32N, the “folding stability dG” value was determined as 1.33 kcal/mol.

For Q32D, the “folding stability dG” value is 1.27 kcal/mol.

Consider Q32K, for which the “folding stability dG” value was 1.71 kcal/mol.

For the variant Q32L, the “folding stability dG” value worked out at 1.48 kcal/mol.

For the origin of these results see the MegaScale stability set (Tsuboyama et al. 2023).
